Measurements published in the DeepSol protein solubility set.

Experiment: soluble on expression in E. coli; label from the status in PepcDB or PDB records

Row | Sequence | soluble on expression in E. coli
1 | MEKEAFMEKLLSFMKEEAYKPLTVQELEEMLNITEAEEFKELVKALVALEEKGLIVRTRSDRYGIPEKMNLIKGKISAHAKGFAFLLPEDTSLSDVFIPPNELNTAMNGDIVMVRLNSQSSGSRQEGTVIRILERAIQRVVGTYTETRNFGFVIPDDKKITSDIFIPKNGKNGAAEGHKVVVKLTSYPEGRMNAEGEVETILGHKNDPGIDILSVIHKHGLPGEFPADAMEQASSTPDTIDEKDLKDRRDLRDQVIVTIDGADAKDLDDAVTVTKLDDGSYKLGVHIADVSHYVTENSPIDKEALERGTSVYLVDRVIPMIPHRLSNGICSLNPKVDRLTLSCEMTINSQGQVTEHEIFQSVIKTTERMTYSDVNKILVDDDEELKQKYEPLVPMFKDMERLAQILRDKRMDRGAVDFDFKEAKVLVDDEGAVKDVVIRERSVAEKLIEEFMLVANETVAEHFHWMNVPFIYRIHEEPNAEKLQKFLEFVTTFGYVVKGTAGNIHPRALQSILDAVRDRPEETVISTVMLRSMKQAKYDPQSLGHFGLSTEFYTHFTSPIRRYPDLIVHRLIRTYLINGKVDEATQEKWAERLPDIAEHTSSMERRAVDAERETDDLKKAEYMLDKIGEEFDGMISSVTNFGMFVELPNTIEGLVHVSFMTDDYYRFDEQHFAMIGERTGNVFRIGDEITVKVVDVNKDERNIDFEIVGMKGTPRRPRELDSSRSRKRGKPARKRVQSTNTPVSPAPSEEKGEWFTKPKKKKKKRGFQNAPKQKRKKKKLEHHHHHH | not soluble
2 | MEKERETLQAWKERVGQELDRVMAFWLEHSHDREHGGFFTCLGRDGRVYDDLKYVWLQGRQVWMYCRLYRKLERFHRPELLDAAKAGGEFLLRHARVAPPEKKCAFVLTRDGRPVKVQRSIFSECFYTMAMNELWRVTAEARYQSEAVDMMDQIVHWVREDPSGLGRPQLPGAVASESMAVPMMLLCLVEQLGEEDEELAGRYAQLGHWCARRILQHVQRDGQAVLENVSEDGEELSGCLGRHQNPGHALEAGWFLLRHSSRSGDAKLRAHVIDTFLLLPFRSGWDADHGGLFYFQDADGLCPTQLEWAMKLWWPHSEAMIAFLMGYSESGDPALLRLFYQVAEYTFRQFRDPEYGEWFGYLNREGKVALTIKGGPFKGCFHVPRCLAMCEEMLSALLSRLA | soluble
3 | MEKGWKRADLHVHTTCSFDVLPAKDLNPLSLYEKSLEIGMDFVTFTDHDTVEAYEILGWDREKLTPGAEMTLYDPEFAGHTLHINVFELDREYFSELREIAEIEHDLKSFTGYLKRHRLPFVYNHPFWFEFHRQPNPSAVPKLAKLFPVLEYNMHELKQKNELTIALAERFGKSIVATTDTHTGKMGQVYTLAKGDSFREYFRNIEKGRNYIVTGDLTRELLIEEMNTWIDLIFEKSQKNRDIKNYLTGIKSLDALVKISRSTLLNYSPRLNRTAMNLFYMISNTGLPASFYIHSEKSFAREIEKDIEINNRK | not soluble
4 | MEKKKLTTAAGAPVVDNNNVITAGPRGPMLLQDVWFLEKLAHFDREVIPERRMFAKGSGAFGTFTVTHDITKYTRAKIFSEVGKKTEMFARFSTVAGERGAADAERDIRGFALKFYTEEGNWDMVGNNTPVFYLRDPLKFPDLNHIVKRDPRTNMRNMAYKWDFFSHLPESLHQLTIDMSDRGLPLSYRFVHGFGSHTYSFINKDNERFWVKFHFRCQQGIKNLMDDEAEALVGKDRESSQRDLFEAIERGDYPRWKLQIQIMPEKEASTVPYNPFDLTKVWPHADYPLMDVGYFELNRNPDNYFSDVEQAAFSPANIVPGISFSPDKMLQGRLFSYGDAHRYRLGVNHHQIPVNAPKCPFHNYHRDGAMRVDGNSGNGITYEPNSGGVFQEQPDFKEPPLSIEGAADHWNHREDEDYFSQPRALYELLSDDEHQRMFARIAGELSQASKETQQRQIDLFTKVHPEYGAGVEKAIKVLEGKDAK | soluble
5 | MEKKKVAEWLAQGSIAVPKLLLGHYKQLGLGEGELVLLLHMQSFFEEGVLFPTPAELAERMTVSAAECMEMVRRLLQKGMIAIEEHTDEQGIRNEKYTLEPLWEKLVHHLYTQAAQQGELGRQEEEES | soluble
6 | MEKKPWEEDISIEEFKKSLNKDKITNLIIKRRWNKGKSTYHLSFNGDFEVVTKKPSTKYVTHKQLDQKLKEFKQDLMVELHDTFATKADLRDSEARINQKLEALVQVVLLHGEQINKLTQIVEKQGEQIRELQVEQKAQRQEFNARMDRLENLLVESIESTNKRFDSIEGRLDSMDSRLDSMENRLDSIEGRLDSVEGRLDSVEGRLDSMENRLDSMETRLDKIDPPK | soluble
7 | MEKSEGGDQPESAGEKEQVHQGADQQVQREKRRRSVSPDGGDVGSVKMADVVLEGASDVAVTKKRKITEEAAAAAKVNSEAITSATGPNTSTQAAASANEEDDKDKEDDKDAKKKKNRCGECRKKVGLTGFQCRCGGLYCAVHRYSDKHNCTFDYREHGAQEIRRNNPVVVGEKIQKILEHHHHHH | not soluble
8 | MEKTPAETTAVSAGNVPRDSIPCITNVSADTRGRTRPSRPATVPQRRPARIGHFRRRSASLSFLDWPDGSVTEGVRTTSASVAASAARFDEIRRRRQSINDEMKERTLEDALAVELVNETFRCSVTSDARKDLQKLVRRVSGTVLRLSWPNGWFFTYCDLLRVGYFGHLNIKGLEKTFLCCDKFLPGLEHHHHHH | not soluble
9 | MEKVKVKNPIVELDGDEMARVMWKMIKEKLILPYLDIQLVYFDLGIKKRDETDDQITIEAAKAIKKYGVGVKCATITPDAERVKEYNLKKAWKSPNATIRAYLDGTVFRKPIMVKNVPPLVKRWKKPIIIGRHAYGDIYNAVEAKVEGPAEVELVVRNKENKTLLVHKFEGNGVVMAMHNLEKSIRSFAQSCINYAISEKVDIWFATKDTISKVYHAYFKDIFQEEVDKRKEELEKAGVNYRYMLIDDAAAQILRSEGGMLWACMNYEGDIMSDMIASGFGSLGLMTSVLVSPDGVYEFEAAHGTVRRHYYRYLKGEKTSTNPTASIFAWTGAIRKRGELDGTPEVCEFADKLEKAVINTIESGVITKDLQPFTEPPIDKYVTLEEFIDEVKKNLEKLL | soluble
10 | MELAAGSFSEEQFWEACAELQQPALAGADWQLLVETSGISIYRLLDKKTGLYEYKVFGVLEDCSPTLLADIYMDSDYRKQWDQYVKELYEQECNGETVVYWEVKYPFPMSNRDYVYLRQRRDLDMEGRKIHVILARSTSMPQLGERSGVIRVKQYKQSLAIESDGKKGSKVFMYYFDNPGGQIPSWLINWAAKNGVPNFLKDMARACQNYLKKT | soluble
11 | MELKDDDFEKISELGAGNGGVVFKVSHKPSGLVMARKLIHLEIKPAIRNQIIRELQVLHECNSPYIVGFYGAFYSDGEISICMEHMDGGSLDQVLKKAGRIPEQILGKVSIAVIKGLTYLREKHKIMHRDVKPSNILVNSRGEIKLCDFGVSGQLIDSMANSFVGTRSYMSPERLQGTHYSVQSDIWSMGLSLVEMAVGRYPIPPPDAKELELMFGCQVEGDAAETPPRPRTPGRPLSSYGMDSRPPMAIFELLDYIVNEPPPKLPSGVFSLEFQDFVNKCLIKNPAERADLKQLMVHAFIKRSDAEEVDFAGWLCSTIGLNQPSTPTHAAGVLEHHHHHH | soluble
12 | MELKYVIPNMEKTFGQLEYAGEGNIEQRRINGRPTILSRSYNLYSTIQRADDIVVILPSEAGEKHFESDEKVKLINPHITAEGYKIGNRGFTNYIMHADDMVKALEHHHHHH | not soluble
13 | MELLQGKTFVVMGVANQRSIAWGIARSLHNAGAKLIFTYAGERLERNVRELADTLEGQESLVLPCDVTNDEELTACFETIKQEVGTIHGVAHCIAFANRDDLKGEFVDTSRDGFLLAQNISAFSLTAVAREAKKVMTEGGNILTLTYLGGERVVKNYNVMGVAKASLEASVKYLANDLGQHGIRVNAISAGPIRTLSAKGVGDFNSILREIEERAPLRRTTTQEEVGDTAVFLFSDLARGVTGENIHVDSGYHILG | soluble
14 | MELSLSRVHFPVTTLGPGRRLGIWFQGCSIRCPGCISADTWGPGRRRIALARLLADIQPWLEQAEGITVSGGEPFEQFAALLALLGELRRRSRADILVYSGYPLEHLHAQLEQAAGLIDALISDPYQQHAEQSLALRGSDNQRLSLLTELGRARLGGYQRPLREDDKALDLMFDHDGSVWMAGIPRRDDLLRLQDLLREQGHQLSVSAHRPR | not soluble
